Experimental data published in paper PMC3360062.

Substrate: C[C@H](N)C(=O)O
Experiment: purified protein
Details: 0.5 mM ATP, 10 mM MgCl2, 50 mM Tris-HCl pH 7.5, 25°C, 0.25 µM enzyme, 5 min, alanine 0.1-0.5 mM

B1: Sare0718 (Salinispora arenicola) (protein)
chain: QRTSTTTTAETTTSTRATGRTNLPASPYPIHPPEPLATLSPRDRALFVRFGYGPTESVAHTHIHHAFEYWATVTPEAVAVEDGDETITYRELDQRADQLAARLAASGVRPGDRVALFVRRSIPMVVGLLAALKAGAAYVPQHVDTVPPAQLQHVIHTADTRVIMTLAATADRIPVPDGHVVITLDDLGKTEPTDLIAGRFTPATPLPPDSPCYVLFTSGSTGRPNGVVVTHRNICNILLTSPGNLGIQPGWKVGQILNIAFDMASWEILGALSHGATLVIRGSDIVETMSRVDVIIATPTVLSRTDPDRCQRVKVVAVAGEPCPRALADAWSAVCAFYNACGPTETTIVNTMSRHRPTAERLTIGRPTPNNTVYVLDADLRPCPIGTVGEMWAGGDCVSAGYLSNARLTAERYALDPFLGHGRLMFRTRDLGRWTPDGELEHFGRTDDQVKVRGFRVELDSVSAILEAVPGCTRAATIKLDDRSLVSFVAPAEVDPDLARMAVSEALPYYCVPETVHTLPELPTTSRGKIDKLALRRLVTRQDQLVTSQEQGATR
Km: 116.4 ± 15.9 µM
kcat: 0.209893 ± 0.00852 s⁻¹
